Assay results reported in article PMC3791423.

Experiments:
[1] = target: PspA_(1–186) (E. coli) (UniProt P0AFM6)
[2] = target: single-chain linked PspF_(1–275) WT/W56A dimer (E. coli) (UniProt P37344); assay: SEC; linked PspF_(1–275) dimers injected at 70 μM, without and with PspA_(1–186), no nucleotide, 4 °C, Yarra Sec-S3000 column; apparent oligomers
[3] = target: PspA_(1–186) (E. coli) (UniProt P0AFM6); assay: as above
[4] = target: single-chain linked PspF_(1–275) WT/WT dimer (E. coli) (UniProt P37344); assay: as above

stoichiometry N (PspA (1–186) subunits per PspF hexamer) [3] | stoichiometry N (PspF (1–275) subunits) [4] | Substance | reduction of RPO formation (supercoiled nifH promoter) in the presence of PspA (1–186) [1] | stoichiometry N (PspF (1–275) subunits) [2]
 |  | single-chain linked PspF_(1–275) WT/W56A dimer (from UniProt P37344 1-275; P37344 1-275) | 10% | 6
6 | 6 | single-chain linked PspF_(1–275) WT/WT dimer (from UniProt P37344 1-275; P37344 1-275) | 100% | 
